From the supplement of paper PMC10724198
± gives the standard deviation of the averaged measurements.

Tested on: Saccharomyces cerevisiae
Assay: protein stability index of tFT-peptide fusion (C-terminal peptide) (PSI (0-1 scale)); higher = more stable (slower turnover)
Settings: genetic background: wild type; temperature: 30 C
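Further: PSI is a weighted mean of sequencing reads over stability bins, variants kept only with over 10 reads, mCherry proximal and sfGFP distal, peptide attached via GGGS linker.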

Sequence	protein stability index
LTLPSDSSALPA	0.748 ± 0.03
LTPCPHATPEPP	0.615 ± 0.026
LTPFQGLHLPIP	0.745 ± 0.037
LTPMDVPDPLPH	0.757 ± 0.14
LTVGPCQPAGEA	0.776 ± 0.065
LTVLCWVLCYLL	0.527 ± 0.026
LTYFSDRFVTRV	0.6579 ± 0.0051
LVAHLSTAPPPP	0.675 ± 0.0061
LVCCRRILLNTT	0.634 ± 0.089
LVCPLGIEGFSM	0.723 ± 0.034
LVCSSVALLSVL	0.593 ± 0.018
LVDARVRLTFVI	0.536 ± 0.014
LVGAGREGRFVA	0.732 ± 0.083
LVGGTVYRKPSP	0.599 ± 0.025
LVGICERRHVHC	0.638 ± 0.11
LVKRINKVNNRR	0.632 ± 0.1
LVKVGCVGLIKC	0.545 ± 0.0066
LVLPCLLLFPPS	0.711 ± 0.047
LVNLESRAGAIR	0.713 ± 0.043
LVNSEKFCLSIC	0.535 ± 0.035
LVPDGFMLALKE	0.686 ± 0.038
LVQGPLSQDQPI	0.656 ± 0.029
LVRFVLNKYRGR	0.718 ± 0.012
LVRVFGQSPAPL	0.696 ± 0.031
LVSFSDTPMATA	0.786 ± 0.1
LVVSITGRFRRF	0.69 ± 0.03

Sequence	protein stability index
LVVWFGYFGCLL	0.56 ± 0.063
LVWGGVWGAPCR	0.774 ± 0.034
LVWTGGLVGWLR	0.719 ± 0.2
LVYPSPPLQPPP	0.649 ± 0.013
LWAYRFAAGEVH	0.589 ± 0.08
LWGGGVGGVRGV	0.641 ± 0.027
LWGGPLLLPVCL	0.577 ± 0.013
LWGRAVYETFQM	0.67 ± 0.063
LWGSGRNWLLWR	0.7 ± 0.017
LWGVGGADARLQ	0.775 ± 0.021
LWGWAGLRCGGF	0.685 ± 0.032
LWLCLCCSPFFV	0.658 ± 0.1
LWTASISVAEVR	0.633 ± 0.012
LWVGVVGGVRGV	0.598 ± 0.1
LWVREVVVVGTV	0.519 ± 0.013
LWVSGARTTGYF	0.756 ± 0.048
LYHPRLAPLPRT	0.627 ± 0.042
LYIPQKRGLSLH	0.62 ± 0.021
LYITLLEFKEGR	0.643 ± 0.025
LYKKRSCCLSPL	0.714 ± 0.053
LYMSRYLQLNFG	0.653 ± 0.005
LYNFLFLLPYSL	0.647 ± 0.13
LYPDTDSLTPLP	0.725 ± 0.05
LYPPVYRPVLSL	0.6626 ± 0.0029
LYQRCVCSFREK	0.639 ± 0.016
LYSGADPLPWGR	0.716 ± 0.01

Sequence	protein stability index
LYSSMFCGTFLL	0.605 ± 0.048
LYSSPSLQSPNP	0.613 ± 0.021
LYVARVGQCVRD	0.686 ± 0.029
MAVDSVIISAVF	0.592 ± 0.096
MAVVSDDRDINC	0.681 ± 0.056
MCLSYLSIFLSL	0.548 ± 0.065
MCLTPLWYPSSA	0.709 ± 0.03
MDGAVRRCLVRG	0.666 ± 0.062
MEAERRKEGENS	0.673 ± 0.072
MERAGTADGGGA	0.662 ± 0.016
MESGGVGRVVWR	0.655 ± 0.079
MGGCGARAVVVG	0.6196 ± 0.0032
MGRQSCCHKTSG	0.643 ± 0.042
MGSGRGVITTKG	0.704 ± 0.0077
MGVYAVVGTHGV	0.687 ± 0.079
MIFCSPPPLFFP	0.7 ± 0.0013
MIIPTVLCRVDL	0.661 ± 0.022
MKASRREDLCEP	0.62 ± 0.065
MLLSKRHFESDV	0.692 ± 0.018
MLSPQIERGAGR	0.681 ± 0.018
MNERDKGKIKKQ	0.6974 ± 0.0069
MNLVEIIRGVRL	0.7063 ± 0.0051
MNVASCRGREYV	0.686 ± 0.032
MPFYPSLLTSLL	0.678 ± 0.014
MPLPRQTSAPRP	0.665 ± 0.019
MPSRTYPSPPLG	0.693 ± 0.03

Sequence	protein stability index
MSHISPFPIFPC	0.686 ± 0.0074
MSKGKKKGVKRK	0.703 ± 0.013
MSLSLLSLFSSL	0.606 ± 0.027
MTYKSKNRATEE	0.648 ± 0.025
NAVCCGKWRGGS	0.714 ± 0.11
NCGGQGKEDGCK	0.621 ± 0.013
NEGRRNSRRHGG	0.683 ± 0.028
NEHTTLKITKNK	0.6818 ± 0.003
NEIENYKDIIEK	0.684 ± 0.011
NESGWHNLLMSV	0.708 ± 0.0097
NESLKHDCVKDT	0.735 ± 0.13
NETVIATLGKGA	0.657 ± 0.037
NEYFYINVRNRV	0.6743 ± 0.0017
NFAFPWTSTHAF	0.699 ± 0.017
NFLVNGRASLKV	0.583 ± 0.016
NGGRCRIARVLE	0.679 ± 0.023
NGGRSATGSVVV	0.701 ± 0.066
NGLPGNLYAGKT	0.6558 ± 0.0062
NGPAPTFSPAVR	0.685 ± 0.032
NHETRNCEGINS	0.657 ± 0.026
NHRETNRNRGKL	0.75295 ± 0.00072
NHTKAGTEKNKN	0.618 ± 0.067
NIIRGVIAGNPA	0.747 ± 0.026
NILTIYRTMKSR	0.6855 ± 0.0056
NKFSAFSPETWS	0.7385 ± 0.00092
NKIDNNKKIHRV	0.699 ± 0.053

Sequence	protein stability index
NKKEYHDRKKKS	0.619 ± 0.045
NKKKKKRNKQKN	0.762 ± 0.011
NKQKKDEKNKTE	0.73 ± 0.17
NKREYYWINLEC	0.562 ± 0.014
NKRKIKKKKKRG	0.651 ± 0.088
NLETDRRRTYGM	0.697 ± 0.036
NLETVAENMFLA	0.71 ± 0.053
NLEVNFKNIYVK	0.679 ± 0.038
NLPERSRANTLS	0.6749 ± 0.0061
NLPLPPSPFALP	0.733 ± 0.053
NLRLYDCKVAPP	0.691 ± 0.036
NLRQKQKKIKKT	0.642 ± 0.041
NLYENQDHETYR	0.651 ± 0.13
NMPGALETKMGV	0.599 ± 0.054
NNIMKPKRKIIK	0.683 ± 0.031
NNRLSEDVLCEY	0.665 ± 0.078
NNTVRTPKLSIE	0.71584 ± 0.00044
NPLRVRNNNDGL	0.745 ± 0.047
NPLSSPSLPPSS	0.625 ± 0.057
NPPAPPAPHLST	0.685 ± 0.013
NPRGAKRRNSRK	0.663 ± 0.058
NPSNEKERRKKN	0.704 ± 0.02
NPYLLCKFSTLL	0.675 ± 0.028
NQDIKAENTIKL	0.668 ± 0.057
NQHNARTRWLCP	0.645 ± 0.017
NQNKENKEIDRK	0.64 ± 0.097

Sequence	protein stability index
NQSSTSEENSGG	0.653 ± 0.024
NQTVEQPLPTSL	0.708 ± 0.042
NRAIVAYFPGMF	0.666 ± 0.042
NRDSALGPTWAP	0.718 ± 0.034
NRDSPPAGEIHA	0.648 ± 0.082
NREPQPAHTHML	0.684 ± 0.043
NRNDKNIERRKM	0.69 ± 0.069
NRTGVRIEIKGR	0.636 ± 0.081
NSTLSSNATRVK	0.727 ± 0.015
NTDSHIKIRKKI	0.7032 ± 0.0068
NTKEETKESRGR	0.713 ± 0.059
NTPSKKHDLNRL	0.707 ± 0.033
NTSPTRLSCPVF	0.616 ± 0.11
NTTITKMYTKEW	0.714 ± 0.05
NVAKTTTRHNRP	0.718 ± 0.011
NVEARLARVHWM	0.73 ± 0.12
NVEPWTRGMGSA	0.659 ± 0.02
NVLSGIDKRLTI	0.71 ± 0.053
NVLVRFFSSGVW	0.85 ± 0.047
NVRCLVELGGEV	0.714 ± 0.058
NWRCTLGWSWVR	0.706 ± 0.058
NYAMRGSVRTDK	0.665 ± 0.028
NYHAIANRILAK	0.6026 ± 0.004
NYIIRKTKERHK	0.781 ± 0.11
NYMQVSIKNKKE	0.641 ± 0.028
NYNNGHNLKKER	0.634 ± 0.012

Sequence	protein stability index
NYYLPLESCTIG	0.664 ± 0.03
PAAFPRPTRHAA	0.693 ± 0.067
PAASRPPSPSLL	0.665 ± 0.046
PAAVAQAFPLIT	0.649 ± 0.05
PACVLVRRGWYL	0.7277 ± 0.0029
PAGPPHPCPHPS	0.708 ± 0.05
PAHAPSLSPPPF	0.697 ± 0.016
PAKTEPGPLNHR	0.68 ± 0.02
PAPLPPPPPPRP	0.689 ± 0.015
PAPLSRPLSPTL	0.6841 ± 0.0055
PAPPLPPPAAPP	0.576 ± 0.0069
PAPPLPPPPSPY	0.72 ± 0.11
PAPVFPILTPPY	0.734 ± 0.059
PARFPPLPFPPI	0.74 ± 0.035
PARPEPPRANWR	0.647 ± 0.058
PASFAYRTLNMV	0.661 ± 0.082
PASPLFAPSVVP	0.747 ± 0.0086
PASPPPRTISSP	0.704 ± 0.064
PASRLHSPSSPP	0.703 ± 0.038
PATPPPLPPLSP	0.701 ± 0.054
PATQTRKETRTP	0.69 ± 0.059
PATTVAKGSHQF	0.717 ± 0.026
PAVISLLPVWFT	0.691 ± 0.015
PAWGEQYYGNVR	0.69 ± 0.057
PAYTRDIRKPRH	0.654 ± 0.051
PCAPPTPAPLHP	0.6687 ± 0.0048

Sequence	protein stability index
PCDCAHPVLRPM	0.634 ± 0.069
PCHPRPPPASPP	0.692 ± 0.096
PCHSPATRTLPC	0.6824 ± 0.0025
PCLSRFPGSPFL	0.6896 ± 0.0042
PCPLPSPHPPPR	0.717 ± 0.046
PCPPHILAPPPS	0.713 ± 0.0091
PDGFTFVFSPES	0.648 ± 0.038
PDPARSPLTSSY	0.6569 ± 0.0024
PDPGPPYPTPTA	0.708 ± 0.066
PDPPPLLPRLSL	0.701 ± 0.016
PDPSTRASDRKR	0.648 ± 0.017
PDPSVERFRGLC	0.758 ± 0.095
PDRGLRLKRILP	0.5675 ± 0.0017
PDRLPPPLLPPL	0.718 ± 0.028
PDRYPPPPGRRG	0.704 ± 0.014
PDSHPPAPPSPP	0.704 ± 0.031
PEAEPPPPPPPP	0.552 ± 0.028
PEGPTPPSLKLS	0.6162 ± 0.0052
PEMCEKRIKTPT	0.634 ± 0.031
PEQKKRKVKIKK	0.686 ± 0.16
